Here are results for one substance from patent US20190040156A1.

In assay [1] the target is human TNFα (human) (UniProt P01375). In words: CG-MALS of antibody:TNFα complexes, molar ratios about 0.5 to 5.0, antibody 10 µg/mL, PBS pH 7.2.
In assay [2] the target is human FcγRIIb (CD32b) (human) (UniProt P31994). In words: SPR, Biacore T200, antibody captured on protein A, FcγR as analyte, 37 °C, N=3.
The target of assay [3] is human FcγRI (CD64) (human) (UniProt P12314). The description is as above.
Chain of human FcγRI (CD64) (human) (P12314 16-288 limits assumed): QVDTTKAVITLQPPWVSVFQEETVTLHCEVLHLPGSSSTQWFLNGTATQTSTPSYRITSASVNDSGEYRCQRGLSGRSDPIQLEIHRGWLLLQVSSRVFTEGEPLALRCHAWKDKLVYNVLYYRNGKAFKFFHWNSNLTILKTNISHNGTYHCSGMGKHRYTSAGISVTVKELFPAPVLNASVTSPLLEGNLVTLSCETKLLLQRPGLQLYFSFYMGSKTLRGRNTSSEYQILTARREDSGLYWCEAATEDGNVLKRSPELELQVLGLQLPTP

Chain of human FcγRIIb (CD32b) (human) (P31994 43-217 limits assumed): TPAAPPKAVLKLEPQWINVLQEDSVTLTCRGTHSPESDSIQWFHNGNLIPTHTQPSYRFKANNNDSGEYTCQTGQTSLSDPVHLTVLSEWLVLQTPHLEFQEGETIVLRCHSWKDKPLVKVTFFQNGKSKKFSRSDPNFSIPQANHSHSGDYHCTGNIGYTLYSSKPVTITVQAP
Chain of human TNFα (human) (P01375 77-233 limits assumed): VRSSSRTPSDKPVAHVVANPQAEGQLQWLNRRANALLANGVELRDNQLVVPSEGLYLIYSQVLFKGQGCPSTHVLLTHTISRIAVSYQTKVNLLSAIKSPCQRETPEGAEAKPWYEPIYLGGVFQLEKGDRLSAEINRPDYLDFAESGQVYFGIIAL

In general, Kd refers to the equilibrium constant for the complex coming apart. Read a high Kd as weaker binding. In the case of “parental anti-TNFα antibody (adalimumab, as described in U.S. Pat. No. 6,090,382)”, in assay [1], the maximum immune complex weight average molecular weight was > 1300 kDa. For the same substance, the dissociation constant (Kd) in assay [2] came out at 5730 nM; in assay [3] it was 0.0563 nM.
